Measured values taken from paper doi:10.1101/489906 (bioRxiv, 2018).

What was measured:
NSW-2012 GII.4 P domain = biological target: T1, NSW-2012 GII.4 P domain (Norovirus …, strain); assay: ITC
T1 chain: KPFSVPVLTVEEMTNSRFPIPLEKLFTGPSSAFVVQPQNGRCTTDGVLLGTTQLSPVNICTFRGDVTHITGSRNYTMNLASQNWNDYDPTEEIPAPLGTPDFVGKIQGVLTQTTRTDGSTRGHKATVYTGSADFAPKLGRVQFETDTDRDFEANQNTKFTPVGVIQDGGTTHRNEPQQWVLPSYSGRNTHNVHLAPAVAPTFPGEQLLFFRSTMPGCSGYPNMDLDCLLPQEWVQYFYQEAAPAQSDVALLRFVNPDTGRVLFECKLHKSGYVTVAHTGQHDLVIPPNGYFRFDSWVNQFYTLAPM

Saga-2006 GII.4 VLPs = Saga-2006 GII.4 VLPs (Norovirus Hu/GII.4/Saga4/2006/JP …, UniProt B5BTR7, strain); assay: ELISA
CHDC-1974 GII.4 VLPs = CHDC-1974 GII.4 VLPs (Norovirus Hu/GII.4/CHDC2094/1974/US …, UniProt D0QJ68, strain); assay: ELISA

B1: 10E9 MAb (IgG) (antibody, V domains shown)
VH: QVQLQQSGAELMKPGASVKISCTATGYTFITYWIQWVKQRPGHGLEWIGETLPGSGSTNYNEKFKGKATFTADTSSNTAYMQLSSLTSEDSAIYYCARIGRSNDYWGQGTTLTVSS
VL: QIVLTQSPTIMSASPGEKVTMTCSASSSVDYMHWYQQKSGTSPKRWIYDTYKLASGVPARFSGSGSGTSYSLTINSMEAEDAATYYCQQWSSNPLTFGAGTKLELK
Kd (NSW-2012 GII.4 P domain): 59 nM | dH (NSW-2012 GII.4 P domain): -4.3 ± 0.011 kcal/mol | stoichiometry N (NSW-2012 GII.4 P domain): 0.98 | binding result (Saga-2006 GII.4 VLPs): binds | binding result (CHDC-1974 GII.4 VLPs): no binding
